Here are results for two substances from publication PMC12796238.

For assay [1], the target named is Undamaged nucleosome core particle (Cy3-labeled human histone octamer on 191 bp Widom 601 DNA) (human) (UniProt P62807). Briefly: single-molecule fluorescence with optical tweezers.
The target is the same in assay [2]. Briefly: single-molecule fluorescence with optical tweezers. This is another data set of the same source.

pKd: −log10 of the molar value. Like-named read-outs stand apart in the source and are kept apart here.

Chain of YFP-PARP1 (poly(ADP-ribose) polymerase 1, wild type) (P09874 whole entry): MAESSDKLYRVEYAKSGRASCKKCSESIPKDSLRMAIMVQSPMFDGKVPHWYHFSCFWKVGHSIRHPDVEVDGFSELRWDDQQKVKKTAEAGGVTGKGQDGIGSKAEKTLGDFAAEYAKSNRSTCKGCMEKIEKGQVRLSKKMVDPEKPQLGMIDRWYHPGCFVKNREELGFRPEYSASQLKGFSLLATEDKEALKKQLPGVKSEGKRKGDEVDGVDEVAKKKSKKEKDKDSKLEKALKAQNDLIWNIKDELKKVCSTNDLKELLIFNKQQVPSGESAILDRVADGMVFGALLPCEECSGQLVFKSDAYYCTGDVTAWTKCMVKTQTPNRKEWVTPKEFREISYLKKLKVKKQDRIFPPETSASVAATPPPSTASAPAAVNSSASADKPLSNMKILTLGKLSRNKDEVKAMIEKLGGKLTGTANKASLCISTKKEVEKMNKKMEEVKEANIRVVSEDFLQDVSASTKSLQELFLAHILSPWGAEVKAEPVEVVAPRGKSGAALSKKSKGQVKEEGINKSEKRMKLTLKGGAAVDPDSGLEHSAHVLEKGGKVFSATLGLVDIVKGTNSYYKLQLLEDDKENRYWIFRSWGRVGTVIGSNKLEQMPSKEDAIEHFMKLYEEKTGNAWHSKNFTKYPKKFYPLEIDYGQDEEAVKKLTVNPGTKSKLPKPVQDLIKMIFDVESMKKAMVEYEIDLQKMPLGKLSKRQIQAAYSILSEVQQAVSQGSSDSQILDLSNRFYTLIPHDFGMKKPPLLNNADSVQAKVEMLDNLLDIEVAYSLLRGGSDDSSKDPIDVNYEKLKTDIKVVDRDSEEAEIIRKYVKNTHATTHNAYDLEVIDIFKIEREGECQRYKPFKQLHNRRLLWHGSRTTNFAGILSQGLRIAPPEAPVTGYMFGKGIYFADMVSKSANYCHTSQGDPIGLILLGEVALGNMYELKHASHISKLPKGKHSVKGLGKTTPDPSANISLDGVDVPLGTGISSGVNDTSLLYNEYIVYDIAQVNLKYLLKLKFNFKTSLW

“HaloTag-PARP1 H862A/Y896A/E988A (catalytically dead PARP1) (from UniProt P09874 1-1014) (enzyme)” registered a lifetime in assay [1] of 56 s.

What is called pKd is the Kd on a negative log10 scale, so that one unit is a factor of ten. Read a low pKd as a high Kd. Regarding “YFP-PARP1 (poly(ADP-ribose) polymerase 1, wild type) (from UniProt P09874 1-1014) (enzyme)”, the results for the pKd in assay [2] and in assay [1] were 9.00 and 7.99, respectively. The lifetime in assay [1] worked out at 2.5 s.
